Data published in patent publication US20240358847A1 (Merck Sharp & Dohme, published 2024).

What was measured:
[1] = target: T1, TROP2 on BxPC-3 and MDA-MB-231-KWL cells (human, UniProt P09758 27-323); test: on-cell ELISA, BxPC-3 vs MDA-MB-231-KWL cells
T1 construct: whole, on cells
T1 sequence (looked up): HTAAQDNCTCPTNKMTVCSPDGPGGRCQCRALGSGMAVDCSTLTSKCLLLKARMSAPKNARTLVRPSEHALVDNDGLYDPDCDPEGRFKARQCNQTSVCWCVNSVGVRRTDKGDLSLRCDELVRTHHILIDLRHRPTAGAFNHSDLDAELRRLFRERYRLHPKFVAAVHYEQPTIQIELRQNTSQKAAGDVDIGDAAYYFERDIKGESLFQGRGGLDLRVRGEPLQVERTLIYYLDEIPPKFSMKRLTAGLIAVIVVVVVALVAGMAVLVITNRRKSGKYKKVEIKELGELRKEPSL
Experimental: (§1) Cells were plated in duplicate onto 96-well plates, and primary antibody was diluted in cell culture medium with a starting concentration of 30 μg/mL (200 nM) with a dilution factor of 1:5. […] Data was plotted and analyzed. EC50 ([…]) was measured along with area under the curve (AUC) for each cell line.

[2] = target: T1, TROP2 on BxPC-3 and MDA-MB-231-KWL cells; test: on-cell ELISA, MDA-MB-231-KWL cells (TROP2 low); set-up: unit not given beside the values
Experimental: as §1

[3] = target: T1, TROP2 on BxPC-3 and MDA-MB-231-KWL cells; test: on-cell ELISA, BxPC-3 cells (TROP2 high); set-up: unit not given beside the values
Experimental: as §1

[4] = target: T2, Human Trop2 (human, UniProt P09758 27-274, limits assumed); test: SPR, TROP2 capture, pH 7.4, bivalent mode; KDapp
T2 construct: also called TROP2 protein; trophoblast cell-surface antigen 2
T2 sequence (looked up): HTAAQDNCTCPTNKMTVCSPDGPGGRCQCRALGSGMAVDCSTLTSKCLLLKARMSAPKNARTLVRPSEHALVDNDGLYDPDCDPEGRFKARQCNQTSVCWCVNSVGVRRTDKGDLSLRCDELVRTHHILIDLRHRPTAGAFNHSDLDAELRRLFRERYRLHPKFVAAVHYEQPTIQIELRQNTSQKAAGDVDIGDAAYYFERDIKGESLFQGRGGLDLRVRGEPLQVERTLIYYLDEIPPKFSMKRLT

[5] = target: T2, Human Trop2; test: SPR, TROP2 capture, pH 7.4, monovalent mode; KDapp
[6] = target: T2, Human Trop2; test: SPR, binding to target

B1: mAb_Lm_Y53V_HC (antibody, human IgG1, kappa)
heavy: not shown
light: DIQLTQSPSSLSASVGDRVSITCKASQDVSIAVAWYQQKPGKAPKLLIYSASVRYTGVPDRFSGSGSGTDFTLTISSLQPEDFAVYYCQQHYITPLTFGAGTKVEIKRTVAAPSVFIFPPSDEQLKSGTASVVCLLNNFYPREAKVQWKVDNALQSGNSQESVTEQDSKDSTYSLSSTLTLSKADYEKHKVYACEVTHQGLSSPVTKSFNRGEC
With B1 the ΔAUC [1] was 105, the “AUC (MDA-MB-231-KWL)” value [2] was 213 and the “AUC (BxPC-3)” value [3] was 317.

B2: mAb_Lm_Y92A_HC (antibody, human IgG1, kappa)
heavy: not shown
light: DIQLTQSPSSLSASVGDRVSITCKASQDVSIAVAWYQQKPGKAPKLLIYSASYRYTGVPDRFSGSGSGTDFTLTISSLQPEDFAVYYCQQHAITPLTFGAGTKVEIKRTVAAPSVFIFPPSDEQLKSGTASVVCLLNNFYPREAKVQWKVDNALQSGNSQESVTEQDSKDSTYSLSSTLTLSKADYEKHKVYACEVTHQGLSSPVTKSFNRGEC
B2 was tested, and the ΔAUC [1] was 147, the “AUC (MDA-MB-231-KWL)” value [2] was 13.1 and the “AUC (BxPC-3)” value [3] was 160.

B3: mAb_Lm_Y92E_HC (antibody, human IgG1, kappa)
heavy: not shown
light: DIQLTQSPSSLSASVGDRVSITCKASQDVSIAVAWYQQKPGKAPKLLIYSASYRYTGVPDRFSGSGSGTDFTLTISSLQPEDFAVYYCQQHEITPLTFGAGTKVEIKRTVAAPSVFIFPPSDEQLKSGTASVVCLLNNFYPREAKVQWKVDNALQSGNSQESVTEQDSKDSTYSLSSTLTLSKADYEKHKVYACEVTHQGLSSPVTKSFNRGEC
B3 was tested, and the ΔAUC [1] was 148, the “AUC (MDA-MB-231-KWL)” value [2] was 16.1 and the “AUC (BxPC-3)” value [3] was 165.

B4: αTROP2 (HC: Sac-S375C) (LC: Sac-Y53D) (antibody, human IgG1, kappa)
heavy: not shown
light: DIQLTQSPSSLSASVGDRVSITCKASQDVSIAVAWYQQKPGKAPKLLIYSASDRYTGVPDRFSGSGSGTDFTLTISSLQPEDFAVYYCQQHYITPLTFGAGTKVEIKRTVAAPSVFIFPPSDEQLKSGTASVVCLLNNFYPREAKVQWKVDNALQSGNSQESVTEQDSKDSTYSLSSTLTLSKADYEKHKVYACEVTHQGLSSPVTKSFNRGEC
B4 was tested, and the Kd [4] was 6.9 nM.

B5: αTROP2 (HC:Sac) (LC:Sac-Y53D) (antibody, human IgG1, kappa)
heavy: not shown
light: DIQLTQSPSSLSASVGDRVSITCKASQDVSIAVAWYQQKPGKAPKLLIYSASDRYTGVPDRFSGSGSGTDFTLTISSLQPEDFAVYYCQQHYITPLTFGAGTKVEIKRTVAAPSVFIFPPSDEQLKSGTASVVCLLNNFYPREAKVQWKVDNALQSGNSQESVTEQDSKDSTYSLSSTLTLSKADYEKHKVYACEVTHQGLSSPVTKSFNRGEC
B5 was tested, and the ΔAUC [1] was 193, the “AUC (MDA-MB-231-KWL)” value [2] was 95.1 and the “AUC (BxPC-3)” value [3] was 288.

B6: αTROP2 Fab (Fab, V domains shown)
VH: QVQLQQSGSELKKPGASVKVSCKASGYTFTNYGMNWVKQAPGQGLKWMGWINTYTGEPTYTDDFKGRFAFSLDTSVSTAYLQISSLKADDTAVYFCARGGFGSSYWYFDVWGQGSLVTVSS
VL: DIQLTQSPSSLSASVGDRVSITCKASQDVSIAVAWYQQKPGKAPKLLIYSASYRYTGVPDRFSGSGSGTDFTLTISSLQPEDFAVYYCQQHYITPLTFGAGTKVEIK
notes: CH1 and kappa constant parts not specified
B6 gave a Kd [5] of 1.1 nM.

B7: αTROP2 (HC:BSM-YTE-S375C) (LC:BSM-Y53D) conjugated to MP-AA-PABC-MMAE (ADC 1) (antibody, human IgG1, kappa, V domains shown)
VH: QVQLLQSGSELKKPGASVKVSCKASGYTFTNYGMNWVRQAPGQGLKWMGWINTYTGEPTYTDDFKGRFSFSLDTSVSQAYLQISSLKAEDTAVYYCARGGFGSSYWYFDVWGQGTLVTVSS
VL: DIQLTQSPSSLSASVGDRVTITCKASQDVSIAVAWYQQKPGKAPKLLIYSASDRYTGVPSRFSGSGSGTDFTLTISSLQPEDFATYYCQQHYITPLTFGPGTKVEIKR
modifications: Cys at position 375 (Eu numbering) conjugated to MP-AA-PABC-MMAE; DAR 1.9
notes: Antibody-drug conjugate; also called αTROP2 (HC:BSM-YTE-S375C-MMAE) (LC:BSM-Y53D)
B7: binds [6].
